# Measured values published in paper PMC7128310, “Negative Regulation of TLR Signaling by BCAP Requires Dimerization of Its DBB Domain” (The Journal of Immunology Author Choice, 2020).
# B1: BCAP DBB-ANK (residues 179-404) (domain or fragment, human, UniProt Q6ZUJ8 179-404, looked up)
# chain: MVVQPDRIRCGAETTVYVIVRCKLDDRVATEAEFSPEDSPSVRMEAKVENEYTISVKAPNLSSGNVSLKIYSGDLVVCETVISYYTDMEEIGNLLSNAANPVEFMCQAFKIVPYNTETLDKLLTESLKNNIPASGLHLFGINQLEEEDMMTNQRDEELPTLLHFAAKYGLKNLTALLLTCPGALQAYSVANKHGHYPNTIAEKHGFRDLRQFIDEYVETVDMLKSH
# notes: B cell adaptor protein (BCAP), human, DBB and ANK domains, residues 179-404; Cloned into pMCSG7 or pMCSG9; source: E. coli BL21(DE3), purified (Ni-NTA, TEV, Superdex 200)
# Molecular target: the molecule itself
# Assay: SEC-MALS; 50 μl at 2 mg/ml on Superdex 200 Increase 10/300 GL
protein,measurement,value
B1,stoichiometry N,2
